Test results reported in article PMC2727048.

B1: HBV core protein of virion-derived mature capsids (Mat-C), P03146 1-183 (natural protein)
chain: MDIDPYKEFGATVELLSFLPSDFFPSVRDLLDTASALYREALESPEHCSPHHTALRQAILCWGELMTLATWVGVNLEDPASRDLVVSYVNTNMGLKFRQLLWFHISCLTFGRETVIEYLVSFGVWIRTPPAYRPPNAPILSTLPETTVVRRRGRSPRRRTPSPRRRRSQSPRRRRSQSRESQC
B2: HBV core protein of E. coli-derived "recombinant" capsids (rC), P03146 1-183 (natural protein)
chain: B1 chain

How the values were obtained:
Conditions in all cases: remark: other sources report otherwise
[1] = biological target: T1, HBV core protein of virion-derived mature capsids (Mat-C) (Hepatitis B virus), P03146; experiment: Nycodenz gradient ultracentrifugation
T1 chain: B1 chain

[2] = biological target: T1, HBV core protein of virion-derived …; experiment: Nycodenz gradient ultracentrifugation; 50 ng P-Mat-C after transport reaction with 4×10^6 digitonin-permeabilized HuH-7 cells and rabbit reticulocyte lysate, lysate of the cells on the gradient; controls with WGA, cells treated with RNase A
[3] = biological target: T2, HBV core protein of E. coli-derived "recombinant" capsids (rC) (Hepatitis B virus), P03146; experiment: Nycodenz gradient ultracentrifugation
T2 chain: B1 chain

Binder	percent of the radioactivity in the four major (capsid) fractions [1] [%]	percent of 32P core proteins in the particle fractions [2] [%]	percent of the radioactivity in the three major (capsid) fractions [3] [%]
B1	98	99	–
B2	–	–	91
